Measurements taken from PMC13254101.

Experiments:
[1] = target: CrAPE1_(C247S), recombinant soluble domain of Chlamydomonas APE1 with C247S (Chlamydomonas reinhardtii); experiment: SEC-MALS
[2] = target: CrAPE1_(C128S), recombinant soluble domain of Chlamydomonas APE1 with C128S (Chlamydomonas reinhardtii); experiment: SEC-MALS

CrAPE1_(C247S), recombinant soluble domain of Chlamydomonas APE1 with C247S (domain or fragment)
stoichiometry N [1]: 2

CrAPE1_(C128S), recombinant soluble domain of Chlamydomonas APE1 with C128S (domain or fragment)
stoichiometry N [2]: 2
